Substitutions are numbered along the chain they refer to. One block for each binder: values may come before it.
How the values were obtained:
[1] = target: Biotinylated human IGF1 (human, UniProt P05019, biotin); test: flow cytometry on cells
[2] = target: Biotinylated human IGF2 (Homo sapiens, UniProt P01344, biotin); test: flow cytometry on cells
[3] = target: T1, Human IGF2 (Homo sapiens, UniProt P01344); test: SPR
[4] = target: T2, Recombinant human IGF1 (Homo sapiens, UniProt P05019); test: SPR
[5] = target: T1, Human IGF2; test: SPR; remark: listed apart in the source
[6] = target: T2, Recombinant human IGF1; test: SPR; remark: listed apart in the source

Kd [1]: 3.9 nM
Kd [2]: 1.1 nM
B1: scFv m708.2, yeast-displayed (scFv, V domains shown)
VH: QVQLQQPGAEVKKPGSSVKVSCKASGGTFSSYAISWVRQAPGQGLEWMGGIIPILGIANYAQKFQGRVTITADESTSTAYMELSSLRSEDTAVYYCARGPRGYSYNFDYWGQGTLVTVSS
VL: DIQMTQSPSSLSASVGDRVTIACRASQTISRYLNWYQQKPGKAPKLLIYAASSLQSGVSSRFSGSGSGTEFTLTISSLQPEDFATYFCQQTYSPPITFGQGTRLEIK

Kd [3]: 1.8 nM
koff [3]: 0.0004 s⁻¹
Kd [4]: 2.2 nM
koff [4]: 0.0024 s⁻¹
B2: scFv m708.2, purified soluble (scFv, V domains shown)
VH: B1 VH
VL: B1 VL

Kd [3]: 0.061 nM
koff [3]: 2.5e-06 s⁻¹
Kd [4]: 0.2 nM
koff [4]: 0.00028 s⁻¹
B3: scFv m708.5, purified soluble (scFv, V domains shown)
VH: B1 VH with P7L, K13M, I54T, A58V, N59K, E74K, R87G, R98G, Y109N
VL: B1 VL with A22V, L33V, T72A

Kd [1]: 0.1 nM
Kd [2]: 0.041 nM
B4: scFv m708.5, yeast-displayed (scFv, V domains shown)
VH: B1 VH with P7L, K13M, I54T, A58V, N59K, E74K, R87G, R98G, Y109N
VL: B1 VL with A22V, L33V, T72A

fold change of the effective KD against the KD of scFv m708.5 [5]: 60 fold
fold change of the effective KD against the KD of scFv m708.5 [6]: 1000 fold
B5: IgG1 m708.5 (antibody, V domains shown)
VH: B1 VH with P7L, K13M, I54T, A58V, N59K, E74K, R87G, R98G, Y109N
VL: B1 VL with A22V, L33V, T72A

— PMC3170999 (Molecular cancer therapeutics, 2011)
